{"source": "paper PMC12123462", "about": "“Novel Click Coupling Chemistry to Explore Glycan Recognition” (ACS Central Science, 2025)", "substrate": "CC(=O)N[C@H]1[C@H]([C@H](O)[C@H](O)CO)O[C@](OP(=O)(O)OC[C@H]2O[C@@H](n3ccc(N)nc3=O)[C@H](O)[C@@H]2O)(C(=O)O)C[C@@H]1O", "test": "neoglycoprotein ELISA, product detected with APDye-532 SNA", "format": "biochemical, Homo sapiens", "details": "acceptor BSA-LNnT immobilised (250 ng/well), MES pH 6.5, 37 °C, 2 h", "text": "neoglycoprotein ELISA, product detected with APDye-532 SNA on recombinant human ST6Gal1 | K m of CMP-Sia for the recombinant human ST6Gal1"}
{"protein": "recombinant human ST6Gal1 (Homo sapiens) (protein, recombinant) KEKKKGSYYDSFKLQTKEFQVLKSLGKLAMGSDSQSVSSSSTQDPHRGRQTLGSLRGLAKAKPEASFQVWNKDSSSKNLIPRLQKIWKNYLSMNKYKVSYKGPGPGIKFSAEALRCHLRDHVNVSMVEVTDFPFNTSEWEGYLPKESIRTKAGPWGRCAVVSSAGSLKSSQLGREIDDHDAVLRFNGAPTANFQQDVGTKTTIRLMNSQLVTTEKRFLKDSLYNEGILIVWDPSVYHSDIPKWYQNPDYNFFNNYKTYRKLHPNQPFYILKPQMPWELWDILQEISPEEIQPNPPSSGMLGIIIMMTLCDQVDIYEFLPSKRKTDVCYYYQKFFDSACTMGAYHPLLYEKNLVKHLNQGTDEDIYLLGKATLPGFRTIHC", "values": [{"measurement": "Km", "value": 141.4, "unit": "µM"}]}
